Data as given in article PMC4338332 (RNA, 2015).

Biological target: T1, Non-POU domain-containing octamer-binding protein (NONO), endogenous, from HeLa nuclear extract (human (endogenous in HeLa), UniProt Q15233 1-471)
T1 sequence: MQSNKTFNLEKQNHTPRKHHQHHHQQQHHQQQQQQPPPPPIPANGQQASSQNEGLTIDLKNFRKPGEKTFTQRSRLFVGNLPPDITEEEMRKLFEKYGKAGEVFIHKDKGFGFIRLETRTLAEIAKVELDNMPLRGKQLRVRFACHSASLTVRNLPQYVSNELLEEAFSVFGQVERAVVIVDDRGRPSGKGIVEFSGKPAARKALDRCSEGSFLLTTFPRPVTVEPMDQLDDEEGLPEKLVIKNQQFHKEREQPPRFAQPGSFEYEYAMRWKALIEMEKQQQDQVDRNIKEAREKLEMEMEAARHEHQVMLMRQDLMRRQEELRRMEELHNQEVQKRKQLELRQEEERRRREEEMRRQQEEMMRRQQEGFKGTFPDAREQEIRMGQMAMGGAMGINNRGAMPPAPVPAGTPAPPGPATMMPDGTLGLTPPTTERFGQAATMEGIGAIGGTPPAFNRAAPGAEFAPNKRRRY
Test: affinity purification with mass spectrometry

B1: Splicing factor, proline- and glutamine-rich (SFPQ), endogenous, from HeLa nuclear extract (natural protein)
chain: MSRDRFRSRGGGGGGFHRRGGGGGRGGLHDFRSPPPGMGLNQNRGPMGPGPGQSGPKPPIPPPPPHQQQQQPPPQQPPPQQPPPHQPPPHPQPHQQQQPPPPPQDSSKPVVAQGPGPAPGVGSAPPASSSAPPATPPTSGAPPGSGPGPTPTPPPAVTSAPPGAPPPTPPSSGVPTTPPQAGGPPPPPAAVPGPGPGPKQGPGPGGPKGGKMPGGPKPGGGPGLSTPGGHPKPPHRGGGEPRGGRQHHPPYHQQHHQGPPPGGPGGRSEEKISDSEGFKANLSLLRRPGEKTYTQRCRLFVGNLPADITEDEFKRLFAKYGEPGEVFINKGKGFGFIKLESRALAEIAKAELDDTPMRGRQLRVRFATHAAALSVRNLSPYVSNELLEEAFSQFGPIERAVVIVDDRGRSTGKGIVEFASKPAARKAFERCSEGVFLLTTTPRPVIVEPLEQLDDEDGLPEKLAQKNPMYQKERETPPRFAQHGTFEYEYSQRWKSLDEMEKQQREQVEKNMKDAKDKLESEMEDAYHEHQANLLRQDLMRRQEELRRMEELHNQEMQKRKEMQLRQEEERRRREEEMMIRQREMEEQMRRQREESYSRMGYMDPRERDMRMGGGGAMNMGDPYGSGGQKFPPLGGGGGIGYEANPGVPPATMSGSMMGSDMRTERFGQGGAGPVGGQGPRGMGPGTPAGYGRGREEYEGPNKKPRF
B1 was tested, and the “stoichiometry N” value was 1.
